Data as given in article PMC6744581 (2019).

B1: GFP-RhoBTB1 [human] / myc-ROCK1^1–727 [human] (parent complex)
chain 1: MDADMDYERPNVETIKCVVVGDNAVGKTRLICARACNTTLTQYQLLATHVPTVWAIDQYRVCQEVLERSRDVVDEVSVSLRLWDTFGDHHKDRRFAYGRSDVVVLCFSIANPNSLNHVKSMWYPEIKHFCPRTPVILVGCQLDLRYADLEAVNRARRPLARPIKRGDILPPEKGREVAKELGLPYYETSVFDQFGIKDVFDNAIRAALISRRHLQFWKSHLKKVQKPLLQAPFLPPKAPPPVIKIPECPSMGTNEAACLLDNPLCADVLFILQDQEHIFAHRIYLATSSSKFYDLFLMECEESPNGSEGACEKEKQSRDFQGRILSVDPEEEREEGPPRIPQADQWKSSNKSLVEALGLEAEGAVPETQTLTGWSKGFIGMHREMQVNPISKRMGPMTVVRMDASVQPGPFRTLLQFLYTGQLDEKEKDLVGLAQIAEVLEMFDLRMMVENIMNKEAFMNQEITKAFHVRKANRIKECLSKGTFSDVTFKLDDGAISAHKPLLICSCEWMAAMFGGSFVESANSEVYLPNINKISMQAVLDYLYTKQLSPNLDLDPLELIALANRFCLPHLVALAEQHAVQELTKAATSGVGIDGEVLSYLELAQFHNAHQLAAWCLHHICTNYNSVCSKFRKEIKSKSADNQEYFERHRWPPVWYLKEEDHYQRVKREREKEDIALNKHRSRRKWCFWNSSPAVA
chain 2: MSTGDSFETRFEKMDNLLRDPKSEVNSDCLLDGLDALVYDLDFPALRKNKNIDNFLSRYKDTINKIRDLRMKAEDYEVVKVIGRGAFGEVQLVRHKSTRKVYAMKLLSKFEMIKRSDSAFFWEERDIMAFANSPWVVQLFYAFQDDRYLYMVMEYMPGGDLVNLMSNYDVPEKWARFYTAEVVLALDAIHSMGFIHRDVKPDNMLLDKSGHLKLADFGTCMKMNKEGMVRCDTAVGTPDYISPEVLKSQGGDGYYGRECDWWSVGVFLYEMLVGDTPFYADSLVGTYSKIMNHKNSLTFPDDNDISKEAKNLICAFLTDREVRLGRNGVEEIKRHLFFKNDQWAWETLRDTVAPVVPDLSSDIDTSNFDDLEEDKGEEETFPIPKAFVGNQLPFVGFTYYSNRRYLSSANPNDNRTSSNADKSLQESLQKTIYKLEEQLHNEMQLKDEMEQKCRTSNIKLDKIMKELDEEGNQRRNLESTVSQIEKEKMLLQHRINEYQRKAEQENEKRRNVENEVSTLKDQLEDLKKVSQNSQLANEKLSQLQKQLEEANDLLRTESDTAVRLRKSHTEMSKSISQLESLNRELQERNRILENSKSQTDKDYYQLQAILEAERRDRGHDSEMIGDLQARITSLQEEVKHLKHNLEKVEGERKEAQDMLNHSEKEKNNLEIDLNYKLKSLQQRLEQEVNEHKVTKARLTDKHQSIEEAKSVAMCEMEKKLKEEREAR

Variants of: B1
Experiment: co-immunoprecipitation (GFP-trap) with band density quantification; COS7 cells, 24 h after transfection; three independent experiments; parent: 1.1; read off a plot

Row | Variant | response
1 | chain 1 R60A, chain 1 C62A, chain 1 E64A | ~1.1 relative value myc IP/GFP IP
2 | chain 1 E64A, chain 1 K197A | ~2 relative value myc IP/GFP IP
3 | chain 1 E64A | ~1.5 relative value myc IP/GFP IP
4 | chain 1 E64A, chain 1 K197A, chain 1 D198A | ~1.2 relative value myc IP/GFP IP

Variants of: B1
Experiment: co-immunoprecipitation (GFP-trap) with band density quantification; COS7 cells, 24 h after transfection; five independent experiments; parent: 0.52; read off a plot

Row | Variant | response
5 | chain 1 E64A, chain 1 K197A | ~1.4 relative value myc IP/GFP IP
6 | chain 1 K197A | ~0.48 relative value myc IP/GFP IP
7 | chain 1 D198A | ~0.63 relative value myc IP/GFP IP
